Experimental data taken from patent US11597760 (dated 2023).

Legend:
human C5 [1] = biological target: human C5 (human); assay: SPR, pH 5.8, 37C
C5-K109A = C5-K109A (human); assay: other, Western blot
C5-D51A = C5-D51A (human); assay: other, Western blot
cynomolgus C5 = biological target: T1, cynomolgus C5 (cynomolgus monkey); assay: SPR, pH 7.4, 37C
T1 chain: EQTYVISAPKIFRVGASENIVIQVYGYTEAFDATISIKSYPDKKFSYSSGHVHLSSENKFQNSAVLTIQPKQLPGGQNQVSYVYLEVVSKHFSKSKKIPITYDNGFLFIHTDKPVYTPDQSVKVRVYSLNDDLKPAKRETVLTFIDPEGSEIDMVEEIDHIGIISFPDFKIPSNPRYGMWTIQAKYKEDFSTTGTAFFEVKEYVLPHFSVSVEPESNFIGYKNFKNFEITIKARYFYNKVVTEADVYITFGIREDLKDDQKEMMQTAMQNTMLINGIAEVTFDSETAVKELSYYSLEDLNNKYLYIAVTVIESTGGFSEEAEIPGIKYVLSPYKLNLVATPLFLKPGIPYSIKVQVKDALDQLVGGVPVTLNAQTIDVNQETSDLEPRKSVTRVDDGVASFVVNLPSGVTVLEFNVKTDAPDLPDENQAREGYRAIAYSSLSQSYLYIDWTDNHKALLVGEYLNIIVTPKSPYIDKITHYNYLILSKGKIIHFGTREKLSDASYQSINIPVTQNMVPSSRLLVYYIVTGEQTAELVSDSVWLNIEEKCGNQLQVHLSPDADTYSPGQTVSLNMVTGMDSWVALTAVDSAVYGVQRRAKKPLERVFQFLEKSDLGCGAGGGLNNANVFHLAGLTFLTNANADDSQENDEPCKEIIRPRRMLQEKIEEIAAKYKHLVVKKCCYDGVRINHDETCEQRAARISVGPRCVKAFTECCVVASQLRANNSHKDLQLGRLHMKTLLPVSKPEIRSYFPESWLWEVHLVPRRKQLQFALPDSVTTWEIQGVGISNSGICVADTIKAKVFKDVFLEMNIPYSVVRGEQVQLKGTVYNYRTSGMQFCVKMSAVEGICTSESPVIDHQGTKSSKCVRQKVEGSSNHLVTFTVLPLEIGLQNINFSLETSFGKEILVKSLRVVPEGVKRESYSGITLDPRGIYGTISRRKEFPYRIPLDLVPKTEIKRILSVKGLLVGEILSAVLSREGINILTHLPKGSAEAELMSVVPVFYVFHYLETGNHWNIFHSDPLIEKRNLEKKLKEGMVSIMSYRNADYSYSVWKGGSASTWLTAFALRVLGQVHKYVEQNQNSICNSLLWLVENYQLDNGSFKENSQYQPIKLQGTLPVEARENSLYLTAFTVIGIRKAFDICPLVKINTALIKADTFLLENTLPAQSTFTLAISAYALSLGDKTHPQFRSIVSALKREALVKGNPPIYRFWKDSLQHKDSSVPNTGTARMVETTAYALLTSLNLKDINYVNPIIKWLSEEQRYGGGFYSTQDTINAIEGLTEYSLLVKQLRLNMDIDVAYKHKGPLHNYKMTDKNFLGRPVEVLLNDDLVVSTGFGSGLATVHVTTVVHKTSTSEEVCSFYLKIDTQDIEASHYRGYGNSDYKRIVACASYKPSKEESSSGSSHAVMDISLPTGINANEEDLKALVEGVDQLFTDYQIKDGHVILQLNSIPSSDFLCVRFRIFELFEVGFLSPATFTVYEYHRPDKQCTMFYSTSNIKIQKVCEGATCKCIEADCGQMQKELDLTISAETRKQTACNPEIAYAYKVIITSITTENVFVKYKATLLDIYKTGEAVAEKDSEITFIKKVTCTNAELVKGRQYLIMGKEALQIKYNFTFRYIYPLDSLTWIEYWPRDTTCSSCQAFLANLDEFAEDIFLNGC

human C5 [2] = biological target: human C5 (human); assay: SPR, pH 7.4, 37C

- Kd (human C5 [1]): 430 nM
- binding result (C5-K109A): no binding
- binding result (C5-D51A): no binding
- Kd (cynomolgus C5): 5.54 nM
- Kd (human C5 [2]): 15.4 nM
B1: CFA0305 (antibody, V domains shown)
VH: QSLEESGGDLVKPGASLAVTCTASGFSSSSSYYMCWVRQAPGKGLEWIGCIYTGSGATYYASWAKGRFTISKTSSTTVTLQMTSLTVADTATYFCASDGGYVTPTHAMYLWGPGTLVTVSS
VL: DVVMTQTPASVSAAVGGTVTIKCQASQNIGSDLAWYQQKPGQPPRLLIYGASKLASGVSSRFSGSGSGKEFTLTISDLECADAVTYYCQCTFVGSSYGNAFGGGTEVVVK
